The record followed here is US20220348666A1 (SUZHOU CONNECT BIOPHARMACEUTICALS, published 2022).

“And” between values parts separate entries of the source, which are not always exact repeats. Identical values can stand only once.

In assay [1] the target is T1, sIL-4Rα (antigen, expressed according to NM_000418.4) (human, UniProt P24394 26-232, limits assumed).
T1 construct: Soluble form coated on the ELISA plate; also called human interleukin-4 receptor alpha
T1 sequence (looked up): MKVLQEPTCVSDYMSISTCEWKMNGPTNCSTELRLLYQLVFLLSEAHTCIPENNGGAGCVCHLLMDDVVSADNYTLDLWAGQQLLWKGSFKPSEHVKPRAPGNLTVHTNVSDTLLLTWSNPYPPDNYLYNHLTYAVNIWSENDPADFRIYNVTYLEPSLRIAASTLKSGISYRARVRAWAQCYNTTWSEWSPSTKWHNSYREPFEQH
The assay can be described thus: indirect ELISA, sIL-4Rα coated on plate, enzyme labeled secondary antibody, run 2. The method, then:
(§1) The antigen (sIL-4Rα, expressed according to NM_000418.4) was coated and absorbed on a solid phase plate for ELISA, and then plate was washed, blocked and washed again before adding the samples to be tested for binding with the antigen. The samples to be tested were dilutions of the formulation prepared according to Example 6 of the present application, and the dilutions were obtained by diluting the formulation with 1% BSA to an antibody concentration of 1000 ng/mL, and subsequently performing a gradient dilution from an initial concentration of 1000 ng/mL to a concentration of 0 ng/mL. The unbound antibody was removed through washing after incubation, and an enzyme labeled secondary antibody was added for further incubation. After the unbound enzyme labeled secondary antibody was removed through washing, enzyme reaction substrate was added for color developing. Finally, the reaction was stopped by adding a stop solution, and absorbance values were read at 450 nm and 655 nm on a microplate reader. According to the absorbance values, half effective concentration EC₅₀ was calculated by curve fitting.
On the technique in general: An ELISA detects its analyte on a solid surface through an enzyme-linked reagent.

For assay [2], the target named is T1, sIL-4Rα (antigen, expressed according …). The experiment in a line: indirect ELISA, sIL-4Rα coated on plate, enzyme labeled secondary antibody, run 3. The protocol:
as §1

The target is the same in assay [3]. The experiment in a line: indirect ELISA, sIL-4Rα coated on plate, enzyme labeled secondary antibody, average value of 6 runs. The method, then: as §1
The target is the same in assay [4]. The experiment in a line: indirect ELISA, sIL-4Rα coated on plate, enzyme labeled secondary antibody, run 5. The protocol:
as §1

For assay [5] the target is unchanged. The experiment in a line: indirect ELISA, sIL-4Rα coated on plate, enzyme labeled secondary antibody, run 1. The method, then: as §1
Assay [6] has the same target. The assay can be described thus: indirect ELISA, sIL-4Rα coated on plate, enzyme labeled secondary antibody, run 4. The method, then:
as §1

Assay [7] has the same target. The assay can be described thus: indirect ELISA, sIL-4Rα coated on plate, enzyme labeled secondary antibody, run 6. The method, then: as §1
Assay [8] concerns the target T2, human interleukin-4 receptor alpha on HEK Blue IL4/IL13 cells (human, UniProt P24394 26-825).
T2 sequence (looked up): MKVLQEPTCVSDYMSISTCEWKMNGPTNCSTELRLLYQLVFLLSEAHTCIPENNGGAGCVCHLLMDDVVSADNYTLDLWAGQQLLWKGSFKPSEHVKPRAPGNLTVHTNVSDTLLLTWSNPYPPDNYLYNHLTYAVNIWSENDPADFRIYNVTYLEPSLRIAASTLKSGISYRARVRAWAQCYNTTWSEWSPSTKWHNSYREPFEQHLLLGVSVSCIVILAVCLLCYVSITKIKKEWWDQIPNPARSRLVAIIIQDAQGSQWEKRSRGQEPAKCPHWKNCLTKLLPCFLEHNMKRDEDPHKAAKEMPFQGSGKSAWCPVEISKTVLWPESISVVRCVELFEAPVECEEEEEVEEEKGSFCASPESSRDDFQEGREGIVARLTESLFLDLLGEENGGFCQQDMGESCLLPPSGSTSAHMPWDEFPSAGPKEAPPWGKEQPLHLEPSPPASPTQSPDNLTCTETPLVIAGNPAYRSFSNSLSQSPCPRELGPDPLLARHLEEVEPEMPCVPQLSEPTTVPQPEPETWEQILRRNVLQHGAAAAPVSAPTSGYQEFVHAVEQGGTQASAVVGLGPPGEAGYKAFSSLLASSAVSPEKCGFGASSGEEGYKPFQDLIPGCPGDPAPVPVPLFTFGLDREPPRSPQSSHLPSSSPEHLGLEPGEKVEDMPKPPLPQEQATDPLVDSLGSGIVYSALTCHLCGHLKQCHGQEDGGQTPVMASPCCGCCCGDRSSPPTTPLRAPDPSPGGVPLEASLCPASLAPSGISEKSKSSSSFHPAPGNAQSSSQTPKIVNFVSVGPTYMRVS
The experiment in a line: cell-based or functional assay.

B1: CBP-201 (antibody, human IgG4 S228P, kappa, V domains shown)
VH: EVQLVESGGGLVQPGGSLRLSCAASGFTFSRNAMFWVRQAPGKGLEWVSGIGTGGATSYADSVKGRFTISRDNAKNSLYLQMNSLRAEDTAVYYCARGRYYFDYWGQGTLVTVSS
VL: EIVLTQSPGTLSLSPGERATLSCRASQSVSSSYLAWYQQKPGQAPRLLIYGASSRATGIPDRFSGSGSGTDFTLTISRLEPEDFAVYYCQQYDHSAGWTFGQGTKVEIKR
notes: Monoclonal antibody; also called CBP-201 antibody; CBP-201 formulation
What is called EC50 is the midpoint of the concentration-response curve. Higher therefore signals a less potent agent. With B1, the EC50 in assay [1] was 1.52 ng/mL and 1.28 ng/mL; in assay [2] it was 1.84 ng/mL and 1.77 ng/mL; in assay [3], 1.69 ng/mL and 1.56 ng/mL; in assay [4], 1.77 ng/mL and 1.84 ng/mL; in assay [5], 1.59 ng/mL and 1.4 ng/mL; in assay [6] it was 1.85 ng/mL and 1.8 ng/mL. Moreover, the EC50 in assay [7] was 1.53 ng/mL and 1.45 ng/mL. Besides, in assay [8], the “IC50 (average value) of blocking STAT-6 signal transduction, HEK Blue IL4/IL13 cells with 0.5 ng/mL IL4, Quanti-blue absorbance at 650 nM” value is 4.19 ng/mL and 4.51 ng/mL.
